B1: IMCAS-72抗体 (全抗IgG1) (antibody, V domains shown)
VH: QVQLVESGGGLVQPGGSLRLSCAASGFTFSSYGMHWVRQAPGKGLEWVAVISYDGSDKYYADSVKGRFTISRDNSKNTLYLQMNSLRAEDTAVYYCARDRDRFGDQGGWFDPWGQGTLVTVSS
VL: not shown
notes: also called T2线抗体
B2: IMCAS-364抗体 (全抗IgG1) (antibody, V domains shown)
VH: QVQLQESGGGVVQPGRSLRLSCAASGFTFSRYGMHWVRQAPGKGLEWVAVIWYDGSNKYYADSVKGRFTISRDNSKNTLYLQMNSLRADDTAVYYCAKQEGTYCSGGSCYSGLDYWGQGTLVTVSS
VL: not shown
notes: also called 金标抗体 (胶体金标记)
B3: IMCAS-123抗体 (全抗IgG1) (antibody, V domains shown)
VH: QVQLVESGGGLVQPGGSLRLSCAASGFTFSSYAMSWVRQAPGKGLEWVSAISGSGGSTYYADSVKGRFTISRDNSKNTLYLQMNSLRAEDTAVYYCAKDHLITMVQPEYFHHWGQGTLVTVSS
VL: DIQMTQSPSSVSASVGDSVTITCRASQGISRWLAWYQQRPGKAPKLLIYAAGNLETGVPSRFSGSGSGTDFTLTISDLQAEDFATYYCQQADSFPLTFGGGTKVDIKR
notes: also called T1线抗体

Experiments:
Omicron BA.1-RBD = biological target: T1, Omicron BA.1-RBD (SARS-CoV-2, UniProt P0DTC2 319-541); assay: lateral-flow sandwich, gold-labelled IMCAS-364 as detector (Table 5)
T1 construct: domain: RBD

Omicron BA.2-RBD = biological target: T2, Omicron BA.2-RBD (SARS-CoV-2, UniProt P0DTC2 319-541); assay: lateral-flow sandwich, gold-labelled IMCAS-364 as detector (Table 4)
T2 construct: domain: RBD

[1] = biological target: T3, SARS-CoV-2 Delta variant RBD蛋白 (SARS-CoV-2, UniProt P0DTC2 319-541); assay: SPR (Biacore 8K)
T3 construct: domain: RBD

[2] = biological target: SARS-CoV-2 Omicron variant RBD蛋白 (Omicron新型冠状病毒RBD蛋白) (SARS-CoV-2, UniProt P0DTC2 319-541); assay: SPR (Biacore 8K)
[3] = biological target: T4, SARS-CoV-2 Alpha variant RBD蛋白 (SARS-CoV-2, UniProt P0DTC2 319-541); assay: SPR (Biacore 8K)
T4 construct: domain: RBD

[4] = biological target: SARS-CoV-2 Beta variant RBD蛋白 (Beta型新型冠状病毒刺突蛋白受体结合域段RBD蛋白) (SARS-CoV-2, UniProt P0DTC2 319-541); assay: SPR (Biacore 8K)

Binder | binding result (Omicron BA.1-RBD) | binding result (Omicron BA.2-RBD) | Kd [1] [nM] | Kd [2] [nM] | Kd [3] [nM] | Kd [4] [nM]
B1 | no binding (tested: IMCAS-72 2mg/mL on the T2 line) | no binding (tested: IMCAS-72 0.8mg/mL on the T2 line) | 0.62 |  |  | 
B2 |  |  |  | 2.19 | 1.06 | 1.07
B3 |  |  | 0.48 | 1.41 | 0.15 | 0.32

Reference: patent CN114395035A (JIANGSU MICKEE MEDICAL TECH CO LTD; INST OF MICROBIOLOGY OF …, dated 2022)
